Data: patent US20140017242A1, “ANTI-BRADYKININ B2 RECEPTOR (BKB2R) MONOCLONAL ANTIBODY” (Diamedica, Inc., priority 2010, published 2014)
Where no end group is shown, it is not given here.

Key:
BKB2 receptor [1] = biological target: T1, BKB2 receptor (Homo sapiens, UniProt P30411); assay: Intracellular calcium release in CHO-K1/B2/Gα15 cells (FLIPR Calcium 4); format: cell-based; set-up: expressed in transfected cells; conditions: bradykinin positive control (10 uM in the method); mean+/−SD, n=2
T1 sequence (P30411 1-391): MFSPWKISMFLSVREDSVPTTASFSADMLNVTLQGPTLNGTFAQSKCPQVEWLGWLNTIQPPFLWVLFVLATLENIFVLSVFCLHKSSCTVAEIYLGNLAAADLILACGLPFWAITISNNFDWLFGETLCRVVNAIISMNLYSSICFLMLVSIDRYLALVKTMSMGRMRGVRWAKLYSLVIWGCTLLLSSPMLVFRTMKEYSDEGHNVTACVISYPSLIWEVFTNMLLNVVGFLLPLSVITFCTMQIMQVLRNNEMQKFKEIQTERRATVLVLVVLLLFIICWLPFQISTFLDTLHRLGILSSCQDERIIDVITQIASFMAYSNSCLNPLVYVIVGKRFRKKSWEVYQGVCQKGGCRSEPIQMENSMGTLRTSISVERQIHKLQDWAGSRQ
Experimental: A stable CHO cell line expressing the human BKB2 receptor (CHO-K1/B2/Gα15) was used for the screening. The antibody was diluted to five different concentrations, from 0.5 mg/ml, via three-fold dilution increments, and screened on duplicate cell samples.
Expression and functional activity of the human BKB2 receptor in the CHO-K1/B2/Gα15 cell line were validated by exposure to the positive control, bradykinin.
To perform the assay, CHO-K1/B2/Gα15 cells were seeded in wells of a 384-well black-wall, clear-bottom plate at a density of 20,000 cells per well in 20 μL of growth medium 20 hours prior to the day of experiment, and maintained at 37° C./5% CO2. 20 μL of dye-loading solution (FLIPR™ Calcium 4 assay kit, Molecular Devices, Sunnyvale, Calif.) was added into each well and the plate was placed into a 37° C. incubator for 60 minutes, followed by 15 minutes at room temperature. The total reading time was 120 sec. After a 20-second reading to establish the baseline, the antibody or agonist were added to selected wells and the fluorescence signal was captured for another 100 seconds (21 s to 120 s). Readings from wells containing cells stimulated with assay buffer (0.03% Na3N PBS) containing 1% DMSO were chosen as the background values for screening; readings from wells containing cells stimulated with the agonist bradykinin (at 10 uM) were chosen as the positive control.

[2] = biological target: human bradykinin B2 receptor (BKB2R) (human) (UniProt P30411); assay: cell-based or functional assay
MV-4-11 = assay: MTT Cell Proliferation Assay, MV-4-11; format: cell-based, human; conditions: 120 hours of exposure
Source text: (§1) This Example describes characterization of the cytotoxic activity of herein described anti-BKB2R monoclonal antibodies against a panel of cancer cell lines. BxPC-3 is a human adenocarcinoma cell line originally isolated from the pancreas (pancreatic cancer) (ATCC # CRL-1687; Tan et al., Cancer Invest. 4: 15-23, 1986. PubMed: 3754176). MV-4-11 is a human biphenotypic B myelomonocytic leukemia (mixed-lineage leukemia, MLL-AF4) cell line originally isolated from the peripheral blood (ATCC # CRL-959; Lange et al., Blood 70: 192-199, 1987. PubMed: 3496132). Hep G2 is a human hepatocellular carcinoma cell line isolated from the liver (liver cancer) (ATCC # HB-8065; Aden et al., Nature 282: 615-616, 1979. PubMed: 233137). RS4;11 is a human acute lymphoblastic leukemia (mixed-lineage leukemia, MLL-AF4) cell line isolated from the bone marrow (ATTC # CRL-1873) Stong et al., Blood 65: 21-31, 1985. PubMed: 3917311). HT-29 is a human colorectal adenocarcinoma (ATTC # HTB-38) cell line isolated from the colon (colon cancer). Fogh et al., J. Natl. Cancer Inst. 58: 209-214, 1977. PubMed: 833871). NUGC-4 is a human stomach carcinoma isolated from the stomach paragastiric lymph node (JCRB # JCRB0834; Akiyama et al., Jpn. J. Surg., 18: 438-446, 1988). […]
(§2) The anti-proliferative activity of test compounds against the indicated cell lines was evaluated in vitro using the ATCC's MTT Cell Proliferation Assay (Catalog No. 30-1010K). After the 120 hour incubation with drug (e.g., anti-BKB2R mAb or cisplatin), cell proliferation was measured by addition of MTT reagent to each well and incubation for an additional 4 hrs. […] Optical absorbance (570 nm) of the test wells was measured and then quantitated relative to control wells that received no drug. Results were expressed as percent inhibition versus compound concentration and graphed, as shown in FIGS. 19-25, for cell lines BxPC-3, MV-4;11, HepG2, RS-4;11, HT-29, NUGC-4, and PC-3, respectively.

HT-29 = assay: MTT Cell Proliferation Assay, HT-29; format: cell-based, human; conditions: 120 hours of exposure
Source text: as §1, §2

PC-3 = assay: MTT Cell Proliferation Assay, PC-3; format: cell-based, human; conditions: 120 hours of exposure
Source text: as §1, §2

NUGC-4 = assay: MTT Cell Proliferation Assay, NUGC-4; format: cell-based, human; conditions: 120 hours of exposure
Source text: as §1, §2

Hep G2 = assay: MTT Cell Proliferation Assay, Hep G2; format: cell-based, human; conditions: 120 hours of exposure
Source text: as §1, §2

BxPC-3 = assay: MTT Cell Proliferation Assay, BxPC-3; format: cell-based, human; conditions: 120 hours of exposure
Source text: as §1, §2

RS-4;11 = assay: MTT Cell Proliferation Assay, RS-4;11; format: cell-based, human; conditions: 120 hours of exposure
Source text: as §1, §2

[3] = cited from earlier work
BKB2 receptor [4] = biological target: T1, BKB2 receptor; conditions: BKB2 receptor agonist; cited from earlier work
[5] = biological target: T2, human BKB2R-derived epitope peptide (SEQ ID NO:73), PEG-biotin (human, also: PEG-biotin, site not given here); assay: BLI (Octet), peptide-PEG-biotin on streptavidin sensor, antibody 500 nM; antibody 500 nM (the 250 nM row r17 gives 4.41E-07 M)
T2 construct: also called immunogenic human BKB2R peptide fragment
T2 peptide: KEYSDEGHNVTAC
Experimental: (§3) For the Octet study, antibodies were analyzed by kinetic titration of the antibodies. Antibodies were prepared in kinetic buffer (0.001 M phosphate buffered saline (NaCl 0.0138 M; KCl-0.00027 M); pH 7.4, at 25° C., 0.1 mg/ml BSA, 0.002% Tween and 0.005% Sodium Azide) followed by 1:2 serial dilutions.
(§4) Sensor Prep: Streptavidin biosensors (FortéBio Inc, Menlo Park, Calif.) were coated by incubation in a solution containing a peptide ([…]-PEG-biotin) (Biosyn, Lewisville, Tex.) at 50 μg/ml (300 seconds/1000 rpm shaking). 96 well half-volume plates were used for testing. 90 μl of sample was plated per well. Sensors were allowed to equilibrate to baseline in kinetic buffer (60 seconds/1000 rpm). The sensors were then placed into the various antibody dilutions to allow binding (association) to the probe for 500 seconds/1000 rpm, and measurements were taken. The sensors were then moved into kinetic buffer without antibody for dissociation (500 seconds/1000 rpm), and measurements were taken. Octet system software calculated kinetic constants for on rate/off rate/affinity.
(§5) For test humanized monoclonal antibodies, the highest concentration used was 500 nM followed by 1:2 dilutions. Each concentration was tested twice. The HC and LC represented the mouse original 5F12G1 VH and VL sequences.

[6] = biological target: T2, human BKB2R-derived epitope peptide …; assay: BLI (Octet), peptide-PEG-biotin on streptavidin sensor, antibody 500 nM
In short: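 Streptavidin biosensors loaded with biotin-PEG peptide at 50 μg/ml; antibodies in PBS-based kinetic buffer pH 7.4 with BSA and Tween at 25° C, 1:2 serial dilutions from 500 nM for humanized antibodies. Association and dissociation 500 s each; on rate, off rate and affinity fitted by instrument software, each concentration in duplicate.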

[7] = biological target: T2, human BKB2R-derived epitope peptide …; assay: BLI (Octet), peptide-PEG-biotin on streptavidin sensor, antibody 250 nM
Experimental: as §3, §4, §5

[8] = biological target: T2, human BKB2R-derived epitope peptide …; assay: BLI (Octet), peptide-PEG-biotin on streptavidin sensor, antibody 1667 nM
[9] = biological target: T2, human BKB2R-derived epitope peptide …; assay: BLI (Octet), peptide-PEG-biotin on streptavidin sensor, antibody 833 nM
[10] = biological target: T2, human BKB2R-derived epitope peptide …; assay: BLI (Octet), peptide-PEG-biotin on streptavidin sensor, antibody 1000 nM
[11] = biological target: T2, human BKB2R-derived epitope peptide …; assay: BLI (Octet), peptide-PEG-biotin on streptavidin sensor, antibody 3333 nM; antibody 3333 nM row; the same constants are printed for all four ab 404 concentrations
[12] = biological target: T2, human BKB2R-derived epitope peptide …; assay: BLI (Octet), peptide-PEG-biotin on streptavidin sensor, antibody 3333 nM

RPPGFSPFR [bradykinin]
percentage of activation (BKB2 receptor [1]): 93.1+/−5.7%

bradykinin (from UniProt P01042 381-389) (peptide)
ED50 (intracellular calcium release, FLIPR, CHO-K1/B2/Gα15 cells) [2]: 0.95 nm/l | percentage of activation (intracellular calcium release, FLIPR, CHO-K1/B2/Gα15 cells) [2]: 93.1%

N.N.[Cl][Pt][Cl] [Cisplatin, cisplatin]
EC 50 Values (ng/ml) MV-4-11 (MV-4-11): 347 ng/mL | EC50 (MV-4-11; read-out: EC 50 MV-4-11, value in brackets): 1200 nM | EC 50 Values (ng/ml) HT-29 (HT-29): 698 ng/mL | EC50 (HT-29; read-out: EC 50 HT-29, value in brackets): 2300 nM | EC 50 Values (ng/ml) PC-3 (PC-3): 753 ng/mL | EC50 (PC-3; read-out: EC 50 PC-3, value in brackets): 2500 nM | EC 50 Values (ng/ml) NUGC-4 (NUGC-4): 1200 ng/mL | EC50 (NUGC-4; read-out: EC 50 NUGC-4, value in brackets): 4100 nM | EC 50 Values (ng/ml) Hep G2 (Hep G2): 239 ng/mL | EC50 (Hep G2; read-out: EC 50 Hep G2, value in brackets): 800 nM | EC 50 Values (ng/ml) BxPC-3 (BxPC-3): 204 ng/mL | EC50 (BxPC-3; read-out: EC 50 BxPC-3, value in brackets): 700 nM | EC 50 Values (ng/ml) RS-4;11 (RS-4;11): 344 ng/mL | EC50 (RS-4;11; read-out: EC 50 RS-4;11, value in brackets): 1100 nM

kallidin
short lived, in vivo [3]: ~30 s | Kd (BKB2 receptor [4]): ~0.89 nM

B1: humanized anti-BKB2R antibody L1/H1 (antibody, human IgG2, kappa, V domains shown)
VH: EVQLVESGGGLVQPGGSLRLSCAASGFTFSDYWMSWVRQAPGKGLEWVAEIRLKSDNYATHYAESVKGRFTISRDNAKNSLYLQMNSLRAEDTAVYYCTRDYYAMEYWGQGTLVTVSS
VL: DIVMTQSPLSLPVTPGEPASISCRSSQTIVHSNGKTYLEWYLQKPGQSPQLLIYKVSNRFSGVPDRFSGSGSGTDFTLKISRVEAEDVGVYYCFQASHVPYTFGQGTKLEIKR
notes: also called H1/L1
Kd [5]: 2330 nM | Max Response [6]: 0.216 | koff [6]: 0.942 s⁻¹ | kon [6]: 404000 M⁻¹ s⁻¹ | Kd [7]: 441 nM | Max Response [7]: 0.286 | koff [7]: 0.701 s⁻¹ | kon [7]: 1.59e+06 M⁻¹ s⁻¹

B2: murine monoclonal anti-BKB2R antibody 5F12G1 (antibody, IgG2b, V domains shown)
VH: EVKLEESGGGLVQPGGSMKLSCVVSGFTFSDYWMSWVRHSPEMGLEWVAEIRLKSDNYATHYAESVKGRFTISRDDSKSRLYLQINSLRGEDTGIYYCTRDYYAMEYWGQGTSVTVSS
VL: DVVMTQTPLSLPVSLGDQASISCRSSQTIVHSNGKTYLEWYLQKPGQSPKLLIYKVSNRFSGVPDRFSGSGSGTEFTLKISRVETEDLGVYYCFQASHVPYTFGGGTKLEIK
notes: also called F512G1
Kd [8]: 462 nM | koff [8]: 0.00109 s⁻¹ | kon [8]: 2350 M⁻¹ s⁻¹ | Kd [9]: 462 nM | koff [9]: 0.00109 s⁻¹ | kon [9]: 2350 M⁻¹ s⁻¹ | Kd [10]: 462 nM | koff [10]: 0.00109 s⁻¹ | kon [10]: 2350 M⁻¹ s⁻¹ | Kd [11]: 462 nM | koff [12]: 0.00109 s⁻¹ | kon [12]: 2350 M⁻¹ s⁻¹
